From patent US20190359687A1 (Bayer, published 2019)
Positions count from the first letter of the chain named. In names and notes the source's numbering stands.

T1: human glycophorin A on human red blood cells or red blood cell membranes (human, UniProt P02724 20-150)
T1 construct: whole, on cells; also called hRBC; human RBC membranes
T1 sequence (looked up): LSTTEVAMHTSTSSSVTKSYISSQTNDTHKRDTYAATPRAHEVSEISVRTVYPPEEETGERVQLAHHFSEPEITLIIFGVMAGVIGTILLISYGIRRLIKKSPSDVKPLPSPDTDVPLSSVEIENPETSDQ

T2: recombinant human glycophorin A ectodomain protein (human, UniProt P02724 20-91)
T2 construct: 72 amino acids of the extracellular region; also called Hu-rec GPA
T2 sequence: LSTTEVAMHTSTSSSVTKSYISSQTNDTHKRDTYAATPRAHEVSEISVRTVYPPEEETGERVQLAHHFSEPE

T3: native human glycophorin A protein (human, UniProt P02724 20-150)
T3 construct: mature; also called Hu-nat GPA
T3 sequence (looked up): T1 sequence (looked up)

B1: TPP-5703, Hu6C12-24 Fab variant VL: (N91S) (Fab, V domains shown)
VH: EVQLVQSGAEVKKPGASVKVSCKASGYTFTTYTIHWVRQAPGQGLEWIGYINPSSDYTRYNPKFKDRVTLTTDKSTSTAYMELRSLRSDDTAVYYCQTGTRDYWGQGTTVTVSS
VL: DIQLTQSPSFLSASVGDRVTITCSAASSVSYIYWFQQKPGKAPKLLIYSTSTLPSGVPSRFSGSGSGTEYTLTISSLQPEDFATYYCHQRSSFPFTFGQGTKLEIKR
notes: Built on the parental Fab TPP-4935
B2: TPP-5701, Hu6C12-24 Fab variant VL: (S49A, P54Q, F95Y) (Fab, V domains shown)
VH: B1 VH
VL: B1 VL with S49A, P54Q, S91N, F95Y
notes: as for B1
B3: TPP-5674, Hu6C12-24 Fab variant VH: (I48M, L70M) (Fab, V domains shown)
VH: B1 VH with I48M, L70M
VL: B1 VL with S91N
notes: as for B1
B4: TPP-5338, Hu6C12-24 Fab variant VH: (E1Q, I48M, L70M, T72R, K74T, R84S, D89E) (Fab, V domains shown)
VH: B1 VH with E1Q, I48M, L70M, T72R, K74T, R84S, D89E
VL: B1 VL with S91N
notes: as for B1
B5: TPP-5696, Hu6C12-24 Fab variant VH: (D66G, L70M) (Fab, V domains shown)
VH: B1 VH with D66G, L70M
VL: B1 VL with S91N
notes: as for B1
B6: TPP-5840, Hu6C12-24 Fab variant VL: (S24R, A26S, S49A, P54Q, F95Y); VH: (L70M, T72R) (Fab, V domains shown)
VH: B1 VH with L70M, T72R
VL: B1 VL with S24R, A26S, S49A, P54Q, S91N, F95Y
notes: as for B1
B7: TPP-5699, Hu6C12-24 Fab variant VL: (S49A, P54Q) (Fab, V domains shown)
VH: B1 VH
VL: B1 VL with S49A, P54Q, S91N
notes: as for B1
B8: TPP-5842, Hu6C12-24 Fab variant VL: (S24R, A26S, S49A, P54Q, F95Y); VH: (D66G, L70M, T72R) (Fab, V domains shown)
VH: B1 VH with D66G, L70M, T72R
VL: B1 VL with S24R, A26S, S49A, P54Q, S91N, F95Y
notes: as for B1
B9: TPP-5695, Hu6C12-24 Fab variant VH: (L70M, T72R) (Fab, V domains shown)
VH: B1 VH with L70M, T72R
VL: B1 VL with S91N
notes: as for B1
B10: TPP-5837, Hu6C12-24 Fab variant VL: (S24R, A26S, S49A, P54Q, F95Y); VH: (I48M, D66G) (Fab, V domains shown)
VH: B1 VH with I48M, D66G
VL: B1 VL with S24R, A26S, S49A, P54Q, S91N, F95Y
notes: as for B1
B11: TPP-5339, Hu6C12-24 Fab variant VH: (E1Q, I48M, L70M, T72R, K74T, R84S, D89E, Q97A, T98R) (Fab, V domains shown)
VH: B1 VH with E1Q, I48M, L70M, T72R, K74T, R84S, D89E, Q97A, T98R
VL: B1 VL with S91N
notes: as for B1
B12: TPP-7791, affinity matured 6C12 Fab (Fab, V domains shown)
VH: B1 VH with T33A, I48M, D56G, D66H, L70M, T72R, Q97W
VL: DIQLTQSPSFLSASVGDRVTITCRASSSVRYIYWFQQKPGKAPKLLIYATSTLRSGVPSRFSGSGSGTEYTLTISSLQPEDFATYYCHQRNSFPYTFGQGTKLEIK
notes: Tested as Fab

These binders were tested against T1, human glycophorin A on human red blood … (assay: ELISA, Fab on coated human RBC membranes).
Description: These membranes are prepared by first isolating red blood cells from citrated whole blood. Citrated whole blood is layered on to Ficol and centrifuged at low speed for 20 minutes to pellet the red blood cells. The supernatant containing plasma and other blood cells is discarded and the red blood cell pellet is subsequently washed 3 times in 10 cell volumes of phosphate buffered saline (PBS). A 10 ml pellet of purified red blood cells is resuspended in 30 ml of cold low osmorality 20 mM phosphate buffer (pH7.4) and incubated for 30 mins to break open the RBC. After Centrifugation at 10,000 rpm for 30 min at 5° C. the hemoglobin containing supernatant is discarded. To the membrane pellet another 30 ml of 20 mM phosphate buffer is added and the sample centrifuged again at 10,000 rpm for 30 min at 5° C. to pellet the membrane fraction. This wash and centrifugation step is repeated another 4 times. The red blood cell membranes are then resuspended in 20 mL of PBS to achieve an equivalent of approximately 2.5E9 cells/mL and stored frozen at −20° C. Binding of antibodies to RBC ghost can be measured by ELISA in which the RBC ghost suspension (5×10⁶ in 100 ul PBS) was added to each well of flat bottom 96-well ELISA microtiter plates (2HB, Immunolon) and the plates incubated overnight at 4° C. The plates were blocked with Starting blocking buffer (Thermo Fisher) for 2 hours at room temperature (RT). Antibodies or other test molecules were added to each well and incubated for 1.5 hours at RT. After 4 washes 100 ul of an appropriate detection antibody was added to each well and incubated for 1 hour at RT. After 4 washes the detection antibody was measured using appropriate detection reagents.

Row | Binder | binding in ELISA relative to parental Fab
1 | B1 | 0.7 relative to parental Fab
2 | B2 | 4.7 relative to parental Fab
3 | B3 | 0.7 relative to parental Fab
4 | B4 | 0.5 relative to parental Fab
5 | B5 | 1 relative to parental Fab
6 | B6 | 6 relative to parental Fab
7 | B7 | 3.1 relative to parental Fab
8 | B8 | 7 relative to parental Fab
9 | B9 | 0.9 relative to parental Fab
10 | B10 | 9.1 relative to parental Fab

The binders below were run against T4, Cynomolgus monkey recombinant glycophorin A ectodomain (Cynomolgus monkey) (assay: ELISA, Fab on coated recombinant cyno GPA ectodomain).
T4 construct: extracellular domain

Row | Binder | binding in ELISA relative to parental Fab
11 | B1 | 0.9 relative to parental Fab
12 | B2 | 1 relative to parental Fab
13 | B3 | 1.1 relative to parental Fab
14 | B5 | 1.2 relative to parental Fab
15 | B6 | 1 relative to parental Fab
16 | B7 | 0.8 relative to parental Fab
17 | B8 | 1.1 relative to parental Fab
18 | B9 | 1.1 relative to parental Fab
19 | B10 | 1.1 relative to parental Fab

These binders were tested against T2, recombinant human glycophorin A … (assay: ELISA, Fab on coated recombinant human GPA ectodomain).

Row | Binder | binding in ELISA relative to parental Fab
20 | B11 | 0 relative to parental Fab
21 | B1 | 1.1 relative to parental Fab
22 | B2 | 3.9 relative to parental Fab
23 | B3 | 1.5 relative to parental Fab
24 | B4 | 0.4 relative to parental Fab
25 | B5 | 1.2 relative to parental Fab
26 | B6 | 4.2 relative to parental Fab
27 | B7 | 3.2 relative to parental Fab
28 | B8 | 4.7 relative to parental Fab
29 | B9 | 1 relative to parental Fab
30 | B10 | 4.5 relative to parental Fab

What follows are binders tested against T3, native human glycophorin A protein (assay: ELISA, Fab on coated native human GPA).

Row | Binder | binding in ELISA relative to parental Fab
31 | B11 | 0 relative to parental Fab
32 | B1 | 2.1 relative to parental Fab
33 | B2 | 4.6 relative to parental Fab
34 | B3 | 1.4 relative to parental Fab
35 | B4 | 0.5 relative to parental Fab
36 | B5 | 1.3 relative to parental Fab
37 | B6 | 5.3 relative to parental Fab
38 | B7 | 3.8 relative to parental Fab
39 | B8 | 5.9 relative to parental Fab
40 | B9 | 0.9 relative to parental Fab
41 | B10 | 5.2 relative to parental Fab

These binders were tested against T1, human glycophorin A on human red blood … (assay: SPR (Biacore), Fab on human RBC membranes;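 also: human RBC membranes captured on an L1 sensor chip, Fab fragments passed over as analyte, binding kinetics read by surface plasmon resonance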).
Description: (§1) Kinetic analysis of the antibody binding to human red blood cell membranes was also performed using surface plasmon resonance (SPR) using a Biacore instrument. In this assay membranes prepared from human red blood cells were attached to a L1 sensor matrix and antibodies were flowed over the RBC membranes.
The binding kinetics of the affinity matured Fab antibodies was also measured.

Row | Binder | binding result
42 | B12 | binds

These binders were tested against T1, human glycophorin A on human red blood … (assay: SPR (Biacore), Fab over human RBC membranes, 1:1 fit;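 also: human RBC membrane preparations captured on an L1 sensor surface, with antibody passed over them as analyte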).
Description: as §1

Row | Binder | Kd | koff | kon
43 | B6 | 4.1 nM | 0.0046 s⁻¹ | 1.1e+06 M⁻¹ s⁻¹
44 | B8 | 3.9 nM | 0.0059 s⁻¹ | 1.5e+06 M⁻¹ s⁻¹
